Source: patent US20110206724A1

Experiments:
Experiment in all cases: capture ELISA on E. coli lysate
[1] = molecular target: 150C-IM2(74) hybrid WHcAg construct (woodchuck hepatitis virus; influenza A virus)
[2] = molecular target: HyW-IM2(-)78 hybrid WHcAg particle (woodchuck hepatitis virus; influenza A virus)
[3] = molecular target: HyW-IM2(74) hybrid WHcAg construct (woodchuck hepatitis virus; influenza A virus)
[4] = molecular target: WT-R-IM2(74) hybrid WHcAg construct (woodchuck hepatitis virus; influenza A virus)

mAb 14C2, anti-influenza M2e (antibody)
relative binding score (Accessability) (relative score) [1]: 3 | relative binding score (Accessability) (relative score) [2]: 3 | relative binding score (Accessability) (relative score) [3]: 3 | relative binding score (Accessability) (relative score) [4]: 2
